Data on two molecules can be found in paper PMC9091222, “Profiling of hMPV F-specific antibodies isolated from human memory B cells” (Nature Communications, 2022).

The target in assay [1] is unprocessed hMPV PreF trimer (wild-type hMPV F ectodomain trimer, strain B2, C-terminal GCN4 trimerization … (Human metapneumovirus, subgroup B2 …, UniProt Q6W8S4, strain)). The experiment in a line: cell-based or functional assay.
The target in assay [2] is T1, processed stabilized hMPV PreF trimer (115BV), co-expressed with furin (Human metapneumovirus, subgroup B2 …, UniProt Q6W8S4, stabilised).
T1 construct: F2 chain of the fusion (F) glycoprotein of human metapneumovirus, strain B2, after cleavage by co-expressed furin; disulfide-linked to F1; F1 chain (ectodomain part) of the fusion (F) glycoprotein of human metapneumovirus, strain B2, after cleavage by co-expressed furin; also called processed PreF; prefusion-stabilized hMPV F trimer 115BV; source: Expi293, co-transfected with furin at 1:1, …
The experiment in a line: cryo-EM structure; M4B06 Fab incubated with processed PreF (115BV) trimer (trimer:Fab = 1:3) for 1 h at 4 °C, purified on Superdex 200 Increase in 25 mM HEPES pH 7.5, 150 mM NaCl; map at 3.75 Å, no symmetry imposed; Fab not built. Particulars: both partners purified.

B1: M4B06 IgG (antibody, V domains shown)
VH: EVQLLESGGGFVQPGGSLRLSCVVTGFTFSNYAMCWVRQAPGKGPEWVSGIGGSVGTTYYADSVKGRFTISRDNSKNTLYLQMSGLRAEDTARYYCAKVPSFFVFEDGFDMWGQGTVVTVSS
VL: QSVLTQPPSASGNPGQRVTISCYGSGSNIGNNYVHWFRQLPGTAPRLLIYNTDILVPGVPDRFSGSESGTSASLAISGLQSGDEADYFCAAWDDTLNGYVFGPGTTVTVL
On to B1, for which, in assay [1], the “neutralization IC50, hMPV A virus (plaque reduction neutralization assay)” value was 3.5 ng/mL and the “neutralization IC50, hMPV B virus (plaque reduction neutralization assay)” value turned out to be 2.2 ng/mL.

B2: M4B06 Fab (Fab, V domains shown)
VH: EVQLLESGGGFVQPGGSLRLSCVVTGFTFSNYAMCWVRQAPGKGPEWVSGIGGSVGTTYYADSVKGRFTISRDNSKNTLYLQMSGLRAEDTARYYCAKVPSFFVFEDGFDMWGQGTVVTVSS
VL: QSVLTQPPSASGNPGQRVTISCYGSGSNIGNNYVHWFRQLPGTAPRLLIYNTDILVPGVPDRFSGSESGTSASLAISGLQSGDEADYFCAAWDDTLNGYVFGPGTTVTVL
notes: as the heavy chain of m4 before CDR3 (germline IGHV3-23*01); heavy chain CDR3; rest of VH after CDR3 and CH1 of the Fab; as the light chain of m4 before CDR3 (germline IGLV1-44*01); light chain CDR3; as the light chain of m4 after CDR3; The Fab was not built in the cryo-EM density map; also called M4B06 monovalent Fab; source: recombinantly purified
On to B2, for which the “stoichiometry N” value in assay [2] stood at 3 Fabs per PreF trimer.
